Assays:
[1] = biological target: T1, heterotrimeric IL-2R (CD25, CD122 and CD132) on transiently transfected 293F cells (UniProt P01589 22-272; P14784 27-551; P31785 23-369, limits assumed); experiment: flow cytometry on transiently transfected 293F cells
T1 construct: whole, on cells
T1 sequence (looked up) 1: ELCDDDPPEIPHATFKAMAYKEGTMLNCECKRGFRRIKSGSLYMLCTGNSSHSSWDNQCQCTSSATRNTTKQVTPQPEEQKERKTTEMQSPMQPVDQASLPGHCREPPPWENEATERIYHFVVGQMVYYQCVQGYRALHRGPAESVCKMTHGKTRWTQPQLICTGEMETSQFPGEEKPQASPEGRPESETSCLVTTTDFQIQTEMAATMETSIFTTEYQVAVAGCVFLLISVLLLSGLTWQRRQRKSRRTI
T1 sequence (looked up) 2: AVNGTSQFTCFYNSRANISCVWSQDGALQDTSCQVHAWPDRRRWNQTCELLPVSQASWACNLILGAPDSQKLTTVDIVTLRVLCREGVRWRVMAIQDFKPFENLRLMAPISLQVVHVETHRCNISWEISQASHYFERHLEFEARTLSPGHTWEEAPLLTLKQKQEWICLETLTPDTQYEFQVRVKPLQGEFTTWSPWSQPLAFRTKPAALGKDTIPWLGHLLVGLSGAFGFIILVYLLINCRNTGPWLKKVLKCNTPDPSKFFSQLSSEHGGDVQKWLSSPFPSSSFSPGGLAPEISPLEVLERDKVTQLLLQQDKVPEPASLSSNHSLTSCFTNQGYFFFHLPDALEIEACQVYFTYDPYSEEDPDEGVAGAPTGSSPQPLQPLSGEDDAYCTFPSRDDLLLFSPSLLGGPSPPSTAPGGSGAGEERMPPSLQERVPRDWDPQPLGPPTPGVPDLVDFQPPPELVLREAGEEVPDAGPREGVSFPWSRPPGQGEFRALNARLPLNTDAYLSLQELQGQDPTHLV
T1 sequence (looked up) 3: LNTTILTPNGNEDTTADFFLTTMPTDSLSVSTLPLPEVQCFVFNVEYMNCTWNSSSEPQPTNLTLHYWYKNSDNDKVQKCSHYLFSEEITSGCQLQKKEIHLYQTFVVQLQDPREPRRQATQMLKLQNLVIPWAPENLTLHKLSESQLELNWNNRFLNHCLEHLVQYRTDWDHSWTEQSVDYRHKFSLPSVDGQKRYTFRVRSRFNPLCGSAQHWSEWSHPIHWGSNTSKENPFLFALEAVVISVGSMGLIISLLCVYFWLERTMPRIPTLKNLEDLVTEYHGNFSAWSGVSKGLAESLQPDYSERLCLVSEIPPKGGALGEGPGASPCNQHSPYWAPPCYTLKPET

[2] = biological target: T2, CD122/CD132 (heterodimeric IL-2R) on transiently transfected 293F cells (UniProt P14784 27-551; P31785 23-369, limits assumed); experiment: as above
T2 construct: whole, on cells; also called CD122 and CD132
T2 sequence (looked up) 1: T1 sequence (looked up) 2
T2 sequence (looked up) 2: T1 sequence (looked up) 3

binding result [1]: binds | binding result [2]: binds
B1: fusion protein comprising triple mutant IL-2 P65R-H16A-D84S (IL-2-RAS) fused to the N-terminus of the knob half of a heterodimeric Fc, paired with a hole Fc (Fc fusion)
chain 1: APTSSSTKKTQLQLEALLLDLQMILNGINNYKNPKLTRMLTFKFYMPKKATELKHLQCLEEELKRLEEVLNLAQSKNFHLRPRSLISNINVIVLELKGSETTFMCEYADETATIVEFLNRWITFCQSIISTLTPGGGGDKTHTCPPCPAPGGPSVFLFPPKPKDTLMISRTPEVTCVVVDVSHEDPEVKFNWYVDGVEVHNAKTKPREEQYNSTYRVVSVLTVLHQDWLNGKEYKCKVSNKALPAPIEKTISKAKGQPREPQVYTLPPCRDELTKNQVSLWCLVKGFYPSDIAVEWESNGQPENNYKTTPPVLDSDGSFFLYSKLTVDKSRWQQGNVFSCSVMHEALHNHYTQKSLSLSPGK
chain 2: KPGGGGDKTHTCPPCPAPGGPSVFLFPPKPKDTLMRSRTPEVTCVVVDVSHEDPEVKFNWYVDGVEVHNAKTKPREEQYNSTYRVVSVLTVLHQDWLNGKEYKCKVSNKALPAPIEKTISKAKGQPREPQVCTLPPSRDELTKNQVSLSCAVKGFYPSDIAVEWESNGQPENNYKTTPPVLDSDGSFFLVSKLTVDKSRWQQGNVFSCSVMHEALHNHYTQKSLSLSPGK
notes: also called IL-2-RAS-xELL knob Fc
